The values below are quoted from earlier work in PMC3044768.

What is called Kd is the equilibrium constant for the complex coming apart.

The target in data set [1] is SARS 3CLpro 3CLpro (Severe acute respiratory syndrome coronavirus) (UniProt P0C6X7). The conditions noted are these: cited from earlier work.
The target is the same in data set [2]. To be noted: cited from earlier work. The source holds these as a separate data set.

Where two headings read alike, the source gives them in different places.

Turning to “SARS 3CLpro 3CLpro (from UniProt P0C6X7)”, the Kd in data set [1] is 5.2 µM; in data set [2], 12.7 µM.
